# Paper PMC3185027, “Structural and functional roles of deamidation of N146 and/or truncation of NH2- or COOH-termini in human αB-crystallin” (Molecular Vision, 2011)
# Numbering of substitutions follows the chain as printed. In names and notes the source's numbering stands.
# B1: wild-type (WT) αB-crystallin (natural protein, human, UniProt P02511 1-175, looked up)
# chain: MDIAIHHPWIRRPFFPFHSPSRLFDQFFGEHLLESDLFPTSTSLSPFYLRPPSFLRAPSWFDTGLSEMRLEKDRFSVNLDVKHFSPEELKVKVLGDVIEVHGKHEERQDEHGFISREFHRKYRIPADVDPLTITSSLSSDGVLTVNGPRKQVSGPERTIPITREEKPAVTAAPKK
# notes: human αB-crystallin, full-length protein containing all residues from 1 to 175; Cloned in pET 100 Directional TOPO; also called His-tagged WT αB-crystallin; not shown: His6, N-terminal, kept
# B2: αB N146D (deamidated αB-crystallin mutant) (natural protein, human, UniProt P02511 1-175, looked up)
# chain: B1 chain with N146D
# notes: human αB-crystallin, residues 1-175, Asn 146 changed to Asp to mimic deamidation; Cloned in pET 100 Directional TOPO; not shown: His6, N-terminal, kept
# B3: αB-CT (COOH-terminal extension deleted αB-crystallin) (domain or fragment, human, UniProt P02511 1-150, looked up)
# chain: MDIAIHHPWIRRPFFPFHSPSRLFDQFFGEHLLESDLFPTSTSLSPFYLRPPSFLRAPSWFDTGLSEMRLEKDRFSVNLDVKHFSPEELKVKVLGDVIEVHGKHEERQDEHGFISREFHRKYRIPADVDPLTITSSLSSDGVLTVNGPRK
# notes: human αB-crystallin lacking the COOH-terminal extension (residues 151-175); containing residues 1-150; Cloned in pET 100 Directional TOPO; also called COOH-terminally truncated αB; not shown: His6, N-terminal, kept
# Target: the molecule itself
# Test: SEC-MALS; HPLC-coupled multi-angle laser light scattering (Wyatt), 18 angles; samples in 50 mM sodium phosphate pH 7.8, filtered through 0.22 μm; absolute molar mass of homomers
row,Protein,binding result
1,B1,binds
2,B2,binds
3,B3,binds
